Positions count from the first letter of the chain named.
T1: Ets-1 p42 (human, UniProt P14921-2 1-354)
T1 sequence: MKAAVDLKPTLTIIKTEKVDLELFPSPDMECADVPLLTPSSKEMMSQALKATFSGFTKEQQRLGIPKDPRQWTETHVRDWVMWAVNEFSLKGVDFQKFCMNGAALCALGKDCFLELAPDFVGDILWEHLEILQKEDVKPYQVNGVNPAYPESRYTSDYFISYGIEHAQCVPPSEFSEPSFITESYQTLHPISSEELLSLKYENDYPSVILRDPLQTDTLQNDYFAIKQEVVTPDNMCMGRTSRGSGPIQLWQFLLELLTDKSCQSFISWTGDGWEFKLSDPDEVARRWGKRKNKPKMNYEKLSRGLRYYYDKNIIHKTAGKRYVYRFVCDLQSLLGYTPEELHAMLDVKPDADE

T2: p51ΔN331 (human, UniProt P14921 331-441)
T2 sequence: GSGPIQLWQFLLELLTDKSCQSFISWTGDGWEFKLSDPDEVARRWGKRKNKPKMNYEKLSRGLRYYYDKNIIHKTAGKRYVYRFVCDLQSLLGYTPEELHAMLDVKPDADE

T3: p42ΔC328 (human, UniProt P14921-2 1-328)
T3 sequence: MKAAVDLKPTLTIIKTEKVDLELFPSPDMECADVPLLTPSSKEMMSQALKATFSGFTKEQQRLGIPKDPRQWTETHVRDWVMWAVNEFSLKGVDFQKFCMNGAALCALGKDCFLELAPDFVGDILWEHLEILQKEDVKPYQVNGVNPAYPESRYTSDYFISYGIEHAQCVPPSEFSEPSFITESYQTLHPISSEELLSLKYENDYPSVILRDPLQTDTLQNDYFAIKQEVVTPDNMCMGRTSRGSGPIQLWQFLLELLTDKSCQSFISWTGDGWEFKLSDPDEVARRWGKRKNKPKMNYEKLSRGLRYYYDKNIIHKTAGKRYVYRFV

T4: Ets-1 DBD (human, UniProt P14921 331-415)
T4 sequence: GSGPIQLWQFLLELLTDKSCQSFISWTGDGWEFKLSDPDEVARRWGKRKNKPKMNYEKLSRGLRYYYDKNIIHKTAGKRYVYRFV

T5: p51(301-415) (human, UniProt P14921 301-415)
T5 sequence: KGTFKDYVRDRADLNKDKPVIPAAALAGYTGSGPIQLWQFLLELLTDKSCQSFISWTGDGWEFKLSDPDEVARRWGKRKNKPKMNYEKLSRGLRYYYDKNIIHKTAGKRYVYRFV

T6: p51ΔC415 (human, UniProt P14921 1-415)
T6 sequence: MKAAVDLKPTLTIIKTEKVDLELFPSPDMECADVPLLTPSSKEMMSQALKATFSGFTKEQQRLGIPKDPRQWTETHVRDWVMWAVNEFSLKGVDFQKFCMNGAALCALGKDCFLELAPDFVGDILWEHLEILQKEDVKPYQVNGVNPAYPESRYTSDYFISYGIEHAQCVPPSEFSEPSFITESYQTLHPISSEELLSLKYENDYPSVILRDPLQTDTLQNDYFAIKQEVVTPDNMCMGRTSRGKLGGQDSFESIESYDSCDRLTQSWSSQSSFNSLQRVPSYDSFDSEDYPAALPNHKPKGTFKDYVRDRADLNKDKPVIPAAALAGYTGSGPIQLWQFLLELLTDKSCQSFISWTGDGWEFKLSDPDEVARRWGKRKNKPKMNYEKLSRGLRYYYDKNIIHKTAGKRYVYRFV

B1: M1 (dsDNA)
DNA 1: ACCAAGACAAAAAGCACTTCCTGGAGATTA
DNA 2: TAATCTCCAGGAAGTGCTTTTTGTCTTGGT
B2: WT (dsDNA)
DNA 1: B1 DNA 1 with A10G, A11G
DNA 2: B1 DNA 2 with T20C, T21C
B3: WT+4 (dsDNA)
DNA 1: ACCAAGACAGGAAGCACGCACTTCCTGGAGATTA
DNA 2: TAATCTCCAGGAAGTGCGTGCTTCCTGTCTTGGT
B4: IP (dsDNA)
DNA 1: ACCAAGAGCTTCCTGCAGGAAGTGAGATTA
DNA 2: TAATCTCACTTCCTGCAGGAAGCTCTTGGT
B5: M2 (dsDNA)
DNA 1: ACCAAGACAGGAAGCACTTTTTGGAGATTA
DNA 2: TAATCTCCAAAAAGTGCTTCCTGTCTTGGT

How the values were obtained:
[1] = target: T1, Ets-1 p42; assay: not stated
[2] = target: T1, Ets-1 p42; assay: EMSA
[3] = target: T2, p51ΔN331; assay: EMSA
[4] = target: T3, p42ΔC328; assay: EMSA
[5] = target: T4, Ets-1 DBD; assay: EMSA
[6] = target: T5, p51(301-415); assay: EMSA
[7] = target: T6, p51ΔC415; assay: EMSA

Binder	Kd [1]	binding result [2]	other results
B1	~0.02 µM	–	–
B2	~0.02 µM	–	–
B3	–	binds	binding result [3]: binds; binding result [4]: binds; binding result [5]: binds; binding result [6]: binds; binding result [7]: binds
B4	–	binds	–
B5	~0.02 µM	–	–
